Substitutions are numbered along the chain they refer to. In names and notes the source's numbering stands.
B1: LY-CoV1404 Fab (Fab, V domains shown)
VH: QITLKESGPTLVKPTQTLTLTCTFSGFSLSISGVGVGWLRQPPGKALEWLALIYWDDDKRYSPSLKSRLTISKDTSKNQVVLKMTNIDPVDTATYYCAHHSISTIFDHWGQGTLVTVSS
VL: QSALTQPASVSGSPGQSITISCTATSSDVGDYNYVSWYQQHPGKAPKLMIFEVSDRPSGISNRFSGSKSGNTASLTISGLQAEDEADYYCSSYTTSSAVFGGGTKLTVL
B2: 2-7 Fab (Fab, V domains shown)
VH: B1 VH with I31T, L39I, S72T, K83T, I87M, S101K, S103E, T104R, H108Y
VL: B1 VL with T5A, A24G, D31A, F51Y, E52D, D55K, I60V, A98T
B3: 2-7 D54N Fab (Fab, V domains shown)
VH: B1 VH with I31T, L39I, D56N, S72T, K83T, I87M, S101K, S103E, T104R, H108Y
VL: B1 VL with T5A, A24G, D31A, F51Y, E52D, D55K, I60V, A98T

These binders were tested against receptor-binding domain (RBD) (residues 319-541) of the SARS-CoV-2 spike (S) protein (SARS-CoV-2, UniProt P0DTC2 319-541) (assay: BLI).
For B1, the Kd was 1.6 nM.
For B2, the Kd was 38 nM.
Binder B3 has a Kd greater than 5000 nM.

Source: paper PMC9606039 (2022)
